Consider 60 substances from US20230038638A1, “COMPLEMENT FACTOR I-RELATED COMPOSITIONS AND METHODS” (published 2023).

The target in assay [1] is soluble human C3b (human) (UniProt P01024).
The target in assay [2] is T1, human C4b (human) (UniProt P0C0L4).
T1 sequence: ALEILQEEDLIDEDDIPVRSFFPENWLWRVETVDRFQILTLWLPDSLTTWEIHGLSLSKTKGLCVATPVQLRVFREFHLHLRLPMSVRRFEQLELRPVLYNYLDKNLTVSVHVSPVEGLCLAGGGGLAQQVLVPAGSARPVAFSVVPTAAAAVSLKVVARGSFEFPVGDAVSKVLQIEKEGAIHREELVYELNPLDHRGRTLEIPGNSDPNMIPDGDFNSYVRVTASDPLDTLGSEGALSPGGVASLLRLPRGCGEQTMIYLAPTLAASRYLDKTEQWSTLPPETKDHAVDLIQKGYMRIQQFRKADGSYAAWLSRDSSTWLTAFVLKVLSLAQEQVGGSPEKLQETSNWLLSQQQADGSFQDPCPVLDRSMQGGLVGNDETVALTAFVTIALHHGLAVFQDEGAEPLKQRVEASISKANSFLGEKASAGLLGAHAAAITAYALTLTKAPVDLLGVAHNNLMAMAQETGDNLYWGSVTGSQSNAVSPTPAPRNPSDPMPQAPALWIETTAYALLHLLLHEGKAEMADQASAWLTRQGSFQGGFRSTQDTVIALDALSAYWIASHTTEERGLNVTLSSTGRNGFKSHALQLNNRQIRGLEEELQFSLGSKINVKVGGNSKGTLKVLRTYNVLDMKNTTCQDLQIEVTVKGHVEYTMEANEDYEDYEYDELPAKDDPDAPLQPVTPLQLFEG

For CFI-HSA D506K (enzyme), the iC3b Screen Ref Fold (fold of CFI-HSA wild type) in assay [1] was 0.03. Also, the C4b Screen Ref Fold (fold of CFI-HSA wild type) in assay [2] was 0.3.
For the substance CFI-HSA D506L (enzyme), in assay [1], the iC3b Screen Ref Fold (fold of CFI-HSA wild type) is -0.03. Moreover, the C4b Screen Ref Fold (fold of CFI-HSA wild type) in assay [2] is 0.41.
For CFI-HSA D506M (enzyme), in that order: 0.01 and 0.05.
For CFI-HSA D506N (enzyme), in that order: 0.05 and 0.03.
On the same counts, the results for CFI-HSA D506P (enzyme) are -0.04 and 0.18.
Take CFI-HSA D506Q (enzyme): in assay [1], the iC3b Screen Ref Fold (fold of CFI-HSA wild type) was -0.02. Further, in assay [2], the C4b Screen Ref Fold (fold of CFI-HSA wild type) stood at 0.47.
Consider CFI-HSA D506S (enzyme), for which, in assay [1], the iC3b Screen Ref Fold (fold of CFI-HSA wild type) amounted to 0. Further, the C4b Screen Ref Fold (fold of CFI-HSA wild type) in assay [2] was -0.02.
On the same counts, the results for CFI-HSA D506T (enzyme) are 0.04 and 0.39.
For CFI-HSA D506W (enzyme), in that order: 0.03 and 0.01.
For CFI-HSA D506Y (enzyme), in that order: -0.05 and 0.02.
Consider CFI-HSA E457G; E461Q; F464Y (enzyme), for which the iC3b Screen Ref Fold (fold of CFI-HSA wild type) in assay [1] turned out to be 1.25. Further, in assay [2], the C4b Screen Ref Fold (fold of CFI-HSA wild type) is 6.56.
For CFI-HSA E457G; E461Q; R462K (enzyme), in that order: 1.54 and 6.74.
For CFI-HSA E457G; F464Y (enzyme), in that order: 1.31 and 5.55.
For CFI-HSA E457G; N531G (enzyme), in that order: 0.88 and 6.5.
With CFI-HSA E457G; R462K (enzyme), the iC3b Screen Ref Fold (fold of CFI-HSA wild type) in assay [1] was 1.11. The C4b Screen Ref Fold (fold of CFI-HSA wild type) in assay [2] worked out at 4.33.
For CFI-HSA E457G; R462K; F464Y (enzyme), in that order: 0.96 and 4.82.
On the same counts, the results for CFI-HSA E457G; S507A (enzyme) are -0.01 and 0.01.
As to “CFI-HSA E457G; S507A; GGSSGG (SEQ ID NO: 6); CCP_1-4 (enzyme)”, in assay [1], the iC3b Screen Ref Fold (fold of CFI-HSA wild type) was found to be 0.01. For the same substance, the C4b Screen Ref Fold (fold of CFI-HSA wild type) in assay [2] amounted to 0.12.
For CFI-HSA E457G; Y408L (enzyme), in that order: 1.39 and 4.83.
For CFI-HSA E461Q; F464Y (enzyme), in that order: 1.11 and 6.36.
On the same counts, the results for CFI-HSA E461Q; R462K (enzyme) are 1.23 and 4.69.
CFI-HSA E461Q; R462K; F464Y (enzyme): the iC3b Screen Ref Fold (fold of CFI-HSA wild type) in assay [1] turned out to be 0.59. The C4b Screen Ref Fold (fold of CFI-HSA wild type) in assay [2] was 4.92.
For CFI-HSA F208Y (enzyme), in that order: 1.5 and 0.6.
For “CFI-HSA F208Y; F246Y; F480Y; F537Y (enzyme)”, in that order: 1.45 and 0.42.
On the same counts, the results for CFI-HSA F246Y (enzyme) are 1.56 and 0.48.
Take CFI-HSA F464A (enzyme): in assay [1], the iC3b Screen Ref Fold (fold of CFI-HSA wild type) came to 0.02. In assay [2], the C4b Screen Ref Fold (fold of CFI-HSA wild type) is -0.01.
On the same counts, the results for CFI-HSA F464H (enzyme) are 0.23 and 0.1.
On the same counts, the results for CFI-HSA F464I (enzyme) are 0.01 and 0.09.
Regarding CFI-HSA F464L (enzyme), the iC3b Screen Ref Fold (fold of CFI-HSA wild type) in assay [1] came out at 0. In addition, in assay [2], the C4b Screen Ref Fold (fold of CFI-HSA wild type) amounted to 0.15.
On the same counts, the results for CFI-HSA F464P (enzyme) are -0.01 and 0.15.
Regarding CFI-HSA F480Y (enzyme), the iC3b Screen Ref Fold (fold of CFI-HSA wild type) in assay [1] was 1.14. The C4b Screen Ref Fold (fold of CFI-HSA wild type) in assay [2] came out at 1.84.
On the same counts, the results for CFI-HSA F537Y (enzyme) are 1.03 and 1.64.
For “CFI-HSA H362T; R456I; D459W; S343R (enzyme)”, in that order: -0.04 and 0.13.
For CFI-HSA H362T; R456I; S343K (enzyme), in that order: 0 and 0.18.
With CFI-HSA H362T; R456I; S343R (enzyme), the iC3b Screen Ref Fold (fold of CFI-HSA wild type) in assay [1] is -0.01. Also, the C4b Screen Ref Fold (fold of CFI-HSA wild type) in assay [2] was found to be 0.08.
For “CFI-HSA H362T; V463S; R456F; D459W; S343R (enzyme)”, the iC3b Screen Ref Fold (fold of CFI-HSA wild type) in assay [1] was -0.01. Further, the C4b Screen Ref Fold (fold of CFI-HSA wild type) in assay [2] was found to be 0.3.
“CFI-HSA H362T; V463S; R456I; D459W; S343K (enzyme)”: the iC3b Screen Ref Fold (fold of CFI-HSA wild type) in assay [1] was -0.02. Also, the C4b Screen Ref Fold (fold of CFI-HSA wild type) in assay [2] turned out to be 0.04.
Regarding “CFI-HSA H362T; V463S; R456I; D459W; S343R (enzyme)”, in assay [1], the iC3b Screen Ref Fold (fold of CFI-HSA wild type) was found to be 0. In addition, in assay [2], the C4b Screen Ref Fold (fold of CFI-HSA wild type) came out at 0.26.
On the same counts, the results for “CFI-HSA H362T; V463S; R456I; S343R (enzyme)” are -0.02 and 0.13.
For “CFI-HSA K14A; D425R; Y408L-N531G (enzyme)”, in that order: 1.78 and 3.94.
For CFI-HSA K504D; Y408L; N531G (enzyme), in that order: 0.07 and 3.45.
On to CFI-HSA K504E; Y408L; N531G (enzyme), for which the iC3b Screen Ref Fold (fold of CFI-HSA wild type) in assay [1] worked out at 0.15. For the same substance, the C4b Screen Ref Fold (fold of CFI-HSA wild type) in assay [2] turned out to be 3.27.
For CFI-HSA K534A (enzyme), in that order: 1.31 and 1.14.
For CFI-HSA K534D (enzyme), the iC3b Screen Ref Fold (fold of CFI-HSA wild type) in assay [1] was 0.72. In addition, in assay [2], the C4b Screen Ref Fold (fold of CFI-HSA wild type) amounted to 2.29.
For CFI-HSA K534E (enzyme), in that order: 1.19 and 0.82.
On the same counts, the results for CFI-HSA K534F (enzyme) are 0.91 and 0.97.
Turning to CFI-HSA K534G (enzyme), the iC3b Screen Ref Fold (fold of CFI-HSA wild type) in assay [1] was 0.13. The C4b Screen Ref Fold (fold of CFI-HSA wild type) in assay [2] came to 0.17.
Turning to CFI-HSA K534H (enzyme), the iC3b Screen Ref Fold (fold of CFI-HSA wild type) in assay [1] came out at 1.79. Moreover, the C4b Screen Ref Fold (fold of CFI-HSA wild type) in assay [2] was 1.9.
For CFI-HSA K534I (enzyme), in that order: 0.83 and 3.03.
As for CFI-HSA K534L (enzyme), the iC3b Screen Ref Fold (fold of CFI-HSA wild type) in assay [1] amounted to 0.87. The C4b Screen Ref Fold (fold of CFI-HSA wild type) in assay [2] was determined as 3.12.
CFI-HSA K534M (enzyme): in assay [1], the iC3b Screen Ref Fold (fold of CFI-HSA wild type) was 0.95. Further, in assay [2], the C4b Screen Ref Fold (fold of CFI-HSA wild type) was 3.89.
On the same counts, the results for CFI-HSA K534N (enzyme) are 0.88 and 3.36.
Take CFI-HSA K534P (enzyme): in assay [1], the iC3b Screen Ref Fold (fold of CFI-HSA wild type) is 0. Moreover, in assay [2], the C4b Screen Ref Fold (fold of CFI-HSA wild type) was 0.11.
For CFI-HSA K534R (enzyme), in that order: 1.44 and 1.81.
With CFI-HSA K534S (enzyme), in assay [1], the iC3b Screen Ref Fold (fold of CFI-HSA wild type) was determined as 0.92. In assay [2], the C4b Screen Ref Fold (fold of CFI-HSA wild type) was 2.65.
On the same counts, the results for CFI-HSA K534T (enzyme) are 0.77 and 1.44.
On the same counts, the results for CFI-HSA K534V (enzyme) are 1.49 and 1.96.
Take CFI-HSA K534W (enzyme): the iC3b Screen Ref Fold (fold of CFI-HSA wild type) in assay [1] was 0.81. In addition, the C4b Screen Ref Fold (fold of CFI-HSA wild type) in assay [2] is 2.19.
For CFI-HSA K534Y (enzyme), in that order: 1.42 and 1.39.
Take CFI-HSA L307A (enzyme): the iC3b Screen Ref Fold (fold of CFI-HSA wild type) in assay [1] came to 0.73. Moreover, the C4b Screen Ref Fold (fold of CFI-HSA wild type) in assay [2] worked out at 4.05.
